Results published in US20240270821A1, “GIP/GLP1/GCG TRI-RECEPTOR AGONISTS AND USES THEREOF” (priority 2023, published 2024).
Non-standard residues stand in square brackets, D forms with d. No end group written: not given here. αMeL = CC(C)C[C@](C)(N)C(=O)O; Aib = CC(C)(N)C(=O)O

T1: human GIP receptor (human) (UniProt P48546)
T1 sequence (looked up): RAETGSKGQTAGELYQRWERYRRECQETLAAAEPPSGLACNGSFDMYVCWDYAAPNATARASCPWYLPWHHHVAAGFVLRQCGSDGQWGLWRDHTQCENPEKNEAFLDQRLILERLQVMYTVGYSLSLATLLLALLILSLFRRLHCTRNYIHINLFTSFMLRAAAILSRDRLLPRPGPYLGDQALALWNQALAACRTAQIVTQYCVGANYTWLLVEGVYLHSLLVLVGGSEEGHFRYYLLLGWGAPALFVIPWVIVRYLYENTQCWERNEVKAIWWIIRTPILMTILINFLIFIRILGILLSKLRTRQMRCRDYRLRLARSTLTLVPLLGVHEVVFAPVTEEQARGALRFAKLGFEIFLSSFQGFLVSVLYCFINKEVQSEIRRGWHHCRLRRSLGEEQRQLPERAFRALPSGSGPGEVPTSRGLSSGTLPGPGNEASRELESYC

B1: Example 32 (peptide)
chain: YXQGTFTSDFSKXLDKKAQXAFIEYLLAGGPSSGEPPPSEGX
modifications: Aib, αMeL, acylated K, C-terminal AEEA amide; synthetic construct; SITE 2: note = 2-Aminoisobutyric Acid; SITE 13: note = alpha-methyl-leucine; SITE 17: note = Lysine is chemically modified through conjugation of the epsilon-amino group of the Lysine side chain with (2-[2-(2-Amino-ethoxy)-ethoxy]-acetyl)-(gamma-Glu)-CO-(CH2) 18-CO2H; SITE 20: n
B2: Example 33 (peptide)
chain: YXQGTFTSDFSKXLDKKAQXAFIEYLLAGGPSSGEPPPSGEX
modifications: not fully specified; Aib, αMeL; acylated Lys; C-terminal AEEA amide; synthetic construct; SITE 2: note = 2-Aminoisobutyric Acid; SITE 13: note = alpha-methyl-leucine; SITE 17: note = Lysine is chemically modified through conjugation of the epsilon-amino group of the Lysine side chain with (2-[2-(2-Amino-ethoxy)-ethoxy]-acetyl)-(gamma-Glu)-CO-(CH2) 18-CO2H; SITE 20: n
B3: Example 90 (peptide)
chain: YXQGTFTSDFSXXLDKKAQXAFIEYLLAGGPSSGAPPPSGSE
modifications: synthetic construct; SITE 2: note = 2-Aminoisobutyric Acid; SITE 12: note = L-ornithine; SITE 13: note = alpha-methyl-leucine; SITE 17: note = Lysine is chemically modified through conjugation of the epsilon-amino group of the Lysine side chain with (2-[2-(2-Amino-ethoxy)-ethoxy]-acetyl)-(gamma-Glu)
B4: Example 41 (peptide)
chain: YXQGTFTSDFSRXLDKKAQXAFIEYLLEGGPSSGAPPPGGS
modifications: Aib, αMeL; acylated Lys; C-terminal amide; synthetic construct; SITE 2: note = 2-Aminoisobutyric Acid; SITE 13: note = alpha-methyl-leucine; SITE 17: note = Lysine is chemically modified through conjugation of the epsilon-amino group of the Lysine side chain with (2-[2-(2-Amino-ethoxy)-ethoxy]-acetyl)-(gamma-Glu)-CO-(CH2) 18-CO2H; SITE 20: n
B5: Example 43 (peptide)
chain: YXQGTFTSDFSKXLDKKAQXAFIEYLLEXGPSSGAPPPGGS
modifications: acylated Lys; Aib, αMeL non-natural; C-terminal amide; synthetic construct; SITE 2: note = 2-Aminoisobutyric Acid; SITE 13: note = alpha-methyl-leucine; SITE 17: note = Lysine is chemically modified through conjugation of the epsilon-amino group of the Lysine side chain with (2-[2-(2-Amino-ethoxy)-ethoxy]-acetyl)-(gamma-Glu)-CO-(CH2) 18-CO2H; SITE 20: n
B6: Example 45 (peptide)
chain: YXQGTFTSDFSKXLDKKAQXAFIEYLLEXGPSSGAPPPSGS
modifications: Aib, αMeL, acylated Lys, C-terminal amide; synthetic construct; SITE 2: note = 2-Aminoisobutyric Acid; SITE 13: note = alpha-methyl-leucine; SITE 17: note = Lysine is chemically modified through conjugation of the epsilon-amino group of the Lysine side chain with (2-[2-(2-Amino-ethoxy)-ethoxy]-acetyl)-(gamma-Glu)-CO-(CH2) 18-CO2H; SITE 20: n
B7: Example 42 (peptide)
chain: YXQGTFTSDFSRXLDKKAQXAFIEYLLEXGPSSGAPPPGGS
modifications: Aib, αMeL; acylated Lys; C-terminal amide; synthetic construct; SITE 2: note = 2-Aminoisobutyric Acid; SITE 13: note = alpha-methyl-leucine; SITE 17: note = Lysine is chemically modified through conjugation of the epsilon-amino group of the Lysine side chain with (2-[2-(2-Amino-ethoxy)-ethoxy]-acetyl)-(gamma-Glu)-CO-(CH2) 18-CO2H; SITE 20: n
B8: Example 29 (peptide)
chain: YXQGTFTSDFSXXLDKKAQXAFIEYLLAGGPSSGEPPPSEG
modifications: Aib, Orn, alpha-methyl-Leu, acylated Lys, C-terminal amide; synthetic construct; SITE 2: note = 2-Aminoisobutyric Acid; SITE 12: note = L-ornithine; SITE 13: note = alpha-methyl-leucine; SITE 17: note = Lysine is chemically modified through conjugation of the epsilon-amino group of the Lysine side chain with (2-[2-(2-Amino-ethoxy)-ethoxy]-acetyl)-(gamma-Glu)
B9: Example 44 (peptide)
chain: YXQGTFTSDFSKXLDKKAQXAFIEYLLEXGPSSGAPPPSSG
modifications: acylated Lys; Aib, αMeL non-natural; C-terminal amide; synthetic construct; SITE 2: note = 2-Aminoisobutyric Acid; SITE 13: note = alpha-methyl-leucine; SITE 17: note = Lysine is chemically modified through conjugation of the epsilon-amino group of the Lysine side chain with (2-[2-(2-Amino-ethoxy)-ethoxy]-acetyl)-(gamma-Glu)-CO-(CH2) 18-CO2H; SITE 20: n
B10: Example 31 (peptide)
chain: YXQGTFTSDFSKXLDKKAQXAFIEYLLAGGPSSGEPPPGEG
modifications: Lys acylated; non-natural residues; C-amide; synthetic construct; SITE 2: note = 2-Aminoisobutyric Acid; SITE 13: note = alpha-methyl-leucine; SITE 17: note = Lysine is chemically modified through conjugation of the epsilon-amino group of the Lysine side chain with (2-[2-(2-Amino-ethoxy)-ethoxy]-acetyl)-(gamma-Glu)-CO-(CH2) 18-CO2H; SITE 20: n
B11: Example 37 (peptide)
chain: YXQGTFTSDFSKXLDKKAQXAFIEWLLEGGPSSGAPPPSEG
modifications: Aib, αMeL; K acylated; C-terminal amide; synthetic construct; SITE 2: note = 2-Aminoisobutyric Acid; SITE 13: note = alpha-methyl-leucine; SITE 17: note = Lysine is chemically modified through conjugation of the epsilon-amino group of the Lysine side chain with (2-[2-(2-Amino-ethoxy)-ethoxy]-acetyl)-(gamma-Glu)-CO-(CH2) 18-CO2H; SITE 20: n
B12: Example 86 (peptide)
chain: YXQGTFTSDFSXXLDKKAQXAFIEYLLAGGPSSGAPPPSGE
modifications: synthetic construct; SITE 2: note = 2-Aminoisobutyric Acid; SITE 12: note = L-ornithine; SITE 13: note = alpha-methyl-leucine; SITE 17: note = Lysine is chemically modified through conjugation of the epsilon-amino group of the Lysine side chain with (2-[2-(2-Amino-ethoxy)-ethoxy]-acetyl)-(gamma-Glu)
B13: Example 46 (peptide)
chain: YXQGTFTSDFSKXLDKKAQXAFIEYLLEXGPSSGEPPPSEG
modifications: Aib, αMeL; acylated Lys; C-terminal amide; synthetic construct; SITE 2: note = 2-Aminoisobutyric Acid; SITE 13: note = alpha-methyl-leucine; SITE 17: note = Lysine is chemically modified through conjugation of the epsilon-amino group of the Lysine side chain with (2-[2-(2-Amino-ethoxy)-ethoxy]-acetyl)-(gamma-Glu)-CO-(CH2) 16-CO2H; SITE 20: n

Tests used:
Experiment in all cases: cell-based or functional assay
hGLP-1R = hGLP-1R (Homo sapiens, UniProt P43220)
Chain of hGLP-1R (P43220 24-463): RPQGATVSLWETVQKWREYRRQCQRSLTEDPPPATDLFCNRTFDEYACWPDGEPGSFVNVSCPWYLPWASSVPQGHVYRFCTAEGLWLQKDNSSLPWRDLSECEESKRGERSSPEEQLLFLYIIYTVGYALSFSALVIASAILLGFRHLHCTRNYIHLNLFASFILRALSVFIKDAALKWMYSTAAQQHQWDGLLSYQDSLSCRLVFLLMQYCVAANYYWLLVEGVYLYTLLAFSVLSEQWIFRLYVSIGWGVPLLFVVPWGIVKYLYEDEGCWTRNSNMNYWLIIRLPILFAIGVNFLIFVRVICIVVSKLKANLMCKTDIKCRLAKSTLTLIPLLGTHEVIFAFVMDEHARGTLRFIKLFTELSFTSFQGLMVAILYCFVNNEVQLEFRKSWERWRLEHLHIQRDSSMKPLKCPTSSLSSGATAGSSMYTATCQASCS

[1] = target: T1, human GIP receptor (human)
[2] = target: human glucagon receptor (human) (UniProt P47871)
Chain of human glucagon receptor (human) (P47871 26-477): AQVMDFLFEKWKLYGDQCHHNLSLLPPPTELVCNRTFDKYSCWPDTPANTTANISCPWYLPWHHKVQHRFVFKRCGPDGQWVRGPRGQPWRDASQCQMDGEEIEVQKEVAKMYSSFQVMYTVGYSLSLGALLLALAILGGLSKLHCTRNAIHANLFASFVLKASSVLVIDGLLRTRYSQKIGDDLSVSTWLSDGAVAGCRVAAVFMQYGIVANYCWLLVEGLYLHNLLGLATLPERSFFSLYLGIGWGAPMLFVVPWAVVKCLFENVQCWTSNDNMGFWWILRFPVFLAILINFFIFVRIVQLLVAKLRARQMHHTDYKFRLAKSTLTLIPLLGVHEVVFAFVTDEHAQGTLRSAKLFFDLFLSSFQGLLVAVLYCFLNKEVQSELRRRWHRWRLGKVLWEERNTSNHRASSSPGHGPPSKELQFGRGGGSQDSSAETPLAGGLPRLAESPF

[3] = target: human GLP1-R (SNAP-GLP-1R expressed in HEK293 cells) (human) (UniProt P43220)
Chain of human GLP1-R (SNAP-GLP-1R expressed in HEK293 cells) (human) (P43220 24-463): as the sequence (P43220 24-463) above

| Binder | Relative cAMP EC50 (hGLP-1R) [nM] | cAMP Rel EC50 (in the presence of 1% HSA) (hGLP-1R) [nM] | Relative cAMP EC50 [1] [nM] | cAMP Rel EC50 (in the presence of 1% HSA) [1] [nM] | Relative cAMP EC50 [2] [nM] | cAMP Rel EC50 (in the presence of 1% HSA) [2] [nM] | GLP1R Internalization EC50 [3] [nM] | Internalization % TOP [3] [%] |
| --- | --- | --- | --- | --- | --- | --- | --- | --- |
| B1 | 2.55 | 422 | 0.28 | 66.1 | 11.6 | 1440 | 86.1 | 64.4 |
| B2 | 1.71 | 436 | 0.285 | 70.7 | 7.04 | 1310 | 106 | 64.6 |
| B3 |  |  |  |  |  |  | 70.8 | 49.8 |
| Y[Aib]QGTFTSDFSK[αMeL]LDKKAQQAFIEYLLA[Aib]GPSSGAPPPSEG-NH2 (not fully specified (residue 17)) [Example 30] | 3.18 | 806 | 0.247 | 72.9 | 5.22 | 969 | 70.4 | 72.8 |
| B4 | 2.2 | 711 | 0.258 | 97.9 | 8.59 | 2310 | 83.7 | 62.3 |
| B5 | 1.55 | 539 | 0.101 | 29.6 | 2.71 | 850 | 58.2 | 68.3 |
| B6 | 1.52 | 493 | 0.112 | 33.4 | 2.08 | 879 | 52.6 | 62.1 |
| B7 | 2.17 | 700 | 0.115 | 32.3 | 5.83 | 1520 | 61.4 | 58.3 |
| B8 | 3.56 | 493 | 0.35 | 70.1 | 11.1 | 1350 | 129 | 57 |
| B9 | 1.66 | 591 | 0.116 | 35.9 | 2.46 | 1050 | 51.5 | 65 |
| B10 | 2.16 | 737 | 0.249 | 63.6 | 8.42 | 1750 | 91.9 | 67.4 |
| B11 | 1.66 | 514 | 0.207 | 56.4 | 6.83 | 1870 | 51.6 | 68.3 |
| B12 |  |  |  |  |  |  | 57.8 | 52.5 |
| B13 | 4.04 | 601 | 0.0947 | 19.6 | 1.53 | 393 | 41 | 58.1 |
